The values that follow come from the supplement of paper PMC5998384.

In series [1] the test system is HeLa Kyoto. As to the kind of experiment: melting temperature (median over replicates), in situ; higher = more thermally stable.
The test system of series [2] is HeLa Kyoto. Kind of series: thermal stability score vs G1/S (z-score of summed log2 fold changes over temperatures); higher = more thermally stable than in G1/S.
In series [3] the test system is HeLa Kyoto. Kind of series: solubility change mitosis vs G1/S (difference of NP-40 vs SDS log2 ratios) (log2 ratio difference); higher = more soluble in mitosis.
The test system of series [4] is HeLa Kyoto. As to the kind of experiment: solubility in G1/S (NP-40 vs SDS abundance) (log2 ratio); higher = more soluble. The following applies: cell cycle stage: G1/S.
[5] abbreviates: cell cycle stage: early G1 (4.5 h after nocodazole release).
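Wherever melting temperature (median over replicates), in situ is given: HeLa Kyoto cells synchronized by double thymidine or nocodazole block, proteins quantified by TMT10plex mass spectrometry, three independent biological replicates.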
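Wherever solubility change mitosis vs G1/S (difference of NP-40 vs SDS log2 ratios) is given: synchronized HeLa Kyoto cells (double thymidine block for G1/S, nocodazole release for mitosis), protein amounts in NP-40 versus SDS lysates quantified by mass spectrometry, three biological replicates.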
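Wherever solubility in G1/S (NP-40 vs SDS abundance) is given: HeLa Kyoto cells arrested at G1/S by double thymidine block, proteins quantified by TMT10plex mass spectrometry in mild NP-40 versus SDS extracts, three biological replicates.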
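Wherever thermal stability score vs G1/S (z-score of summed log2 fold changes over temperatures) is given: synchronized HeLa Kyoto cells, proteins quantified by TMT10plex mass spectrometry, three biological replicates, mitosis taken 0.5 h after nocodazole release, G1/S directly after double thymidine block.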

As for “MRLLPRLLLLLLLVFPATVLFRGGPRGLLAVAQDLTEDEETVEDSIIEDEDDEAEVEEDEPTDLVEDKEEEDVSGEPEASPSADTTILFVKGEDFPANNIVKFLVGFTNKGTEDFIVESLDASFRYPQDYQFYIQNFTALPLNTVVPPQRQATFEYSFIPAEPMGGRPFGLVINLNYKDLNGNVFQDAVFNQTVTVIEREDGLDGETIFMYMFLAGLGLLVIVGLHQLLESRKRKRPIQKVEMGTSSQNDVDMSWIPQETLNQINKASPRRLPRKRAQKRSVGSDE [SSR1]”, the melting temperature in the series with HeLa Kyoto [1] (cell cycle stage: G1/S) worked out at 57.4 °C; in the series on HeLa Kyoto [1] (cell cycle stage: mitosis) it was 58.8 °C. For the same sequence, the results for the thermal stability score in the series on HeLa Kyoto [2] (setting [5]) and with HeLa Kyoto [2] (cell cycle stage: mitosis) were 0.9 and 0.359, respectively. Besides, the “solubility change mitosis (log2)” value in the series with HeLa Kyoto [3] turned out to be 0.0174. The “solubility in G1/S (log2)” value in the series with HeLa Kyoto [4] amounted to 0.474.
With “MRLREPLLSGSAAMPGASLQRACRLLVAVCALHLGVTLVYYLAGRDLSRLPQLVGVSTPLQGGSNSAAAIGQSSGELRTGGARPPPPLGASSQPRPGGDSSPVVDSGPGPASNLTSVPVPHTTALSLPACPEESPLLVGPMLIEFNMPVDLELVAKQNPNVKMGGRYAPRDCVSPHKVAIIIPFRNRQEHLKYWLYYLHPVLQRQQLDYGIYVINQAGDTIFNRAKLLNVGFQEALKDYDYTCFVFSDVDLIPMNDHNAYRCFSQPRHISVAMDKFGFSLPYVQYFGGVSALSKQQFLTINGFPNNYWGWGGEDDDIFNRLVFRGMSISRPNAVVGRCRMIRHSRDKKNEPNPQRFDRIAHTKETMLSDGLNSLTYQVLDVQRYPLYTQITVDIGTPS [B4GALT1]”, the melting temperature in the series with HeLa Kyoto [1] (cell cycle stage: G1/S) came out at 53.1 °C; with HeLa Kyoto [1] (cell cycle stage: mitosis), 54 °C. Besides, the figures for the thermal stability score in the series on HeLa Kyoto [2] (setting [5]) and with HeLa Kyoto [2] (cell cycle stage: mitosis) were -2.25 and -1.74, respectively. Moreover, in the series on HeLa Kyoto [3], the “solubility change mitosis (log2)” value came to 0.0769. In the series on HeLa Kyoto [4], the “solubility in G1/S (log2)” value is -0.0686.
As for “MRLRGCGPRAAPASSAGASDARLLAPPGRNPFVHELRLSALQKAQVALMTLTLFPVRLLVAAAMMLLAWPLALVASLGSAEKEPEQPPALWRKVVDFLLKAIMRTMWFAGGFHRVAVKGRQALPTEAAILTLAPHSSYFDAIPVTMTMSSIVMKAESRDIPIWGTLIQYIRPVFVSRSDQDSRRKTVEEIKRRAQSNGKWPQIMIFPEGTCTNRTCLITFKPGAFIPGAPVQPVVLRYPNKLDTITWTWQGPGALEILWLTLCQFHNQVEIEFLPVYSPSEEEKRNPALYASNVRRVMAEALGVSVTDYTFEDCQLALAEGQLRLPADTCLLEFARLVRGLGLKPEKLEKDLDRYSERARMKGGEKIGIAEFAASLEVPVSDLLEDMFSLFDESGSGEVDLRECVVALSVVCRPARTLDTIQLAFKMYGAQEDGSVGEGDLSCILKTALGVAELTVTDLFRAIDQEEKGKITFADFHRFAEMYPAFAEEYLYPDQTHFESCAETSPAPIPNGFCADFSPENSDAGRKPVRKKLD [LPCAT1]”, the melting temperature was determined as 52 °C in the series on HeLa Kyoto [1] (cell cycle stage: G1/S) and 52.6 °C with HeLa Kyoto [1] (cell cycle stage: mitosis). In addition, the thermal stability score is 2.41 in the series with HeLa Kyoto [2] (setting [5]) and 3.77 with HeLa Kyoto [2] (cell cycle stage: mitosis). Further, in the series with HeLa Kyoto [3], the “solubility change mitosis (log2)” value was -0.086. The “solubility in G1/S (log2)” value in the series on HeLa Kyoto [4] is -0.209.
“MRLSWFRVLTVLSICLSAVATATGAEGKRKLQIGVKKRVDHCPIKSRKGDVLHMHYTGKLEDGTEFDSSLPQNQPFVFSLGTGQVIKGWDQGLLGMCEGEKRKLVIPSELGYGERGAPPKIPGGATLVFEVELLKIERRTEL [FKBP2]”: the melting temperature in the series with HeLa Kyoto [1] (cell cycle stage: G1/S) was found to be 53.1 °C; with HeLa Kyoto [1] (cell cycle stage: mitosis), 54.8 °C. Further, the thermal stability score in the series with HeLa Kyoto [2] (setting [5]) was 1.33; with HeLa Kyoto [2] (cell cycle stage: mitosis) it was 1.16. Further, in the series on HeLa Kyoto [3], the “solubility change mitosis (log2)” value was -0.0211. Further, the “solubility in G1/S (log2)” value in the series with HeLa Kyoto [4] came out at 0.262.
For the sequence “MRLTRCQAALAAAITLNLLVLFYVSWLQHQPRNSRARGPRRASAAGPRVTVLVREFEAFDNAVPELVDSFLQQDPAQPVVVAADTLPYPPLALPRIPNVRLALLQPALDRPAAASRPETYVATEFVALVPDGARAEAPGLLERMVEALRAGSARLVAAPVATANPARCLALNVSLREWTARYGAAPAAPRCDALDGDAVVLLRARDLFNLSAPLARPVGTSLFLQTALRGWAVQLLDLTFAAARQPPLATAHARWKAEREGRARRAALLRALGIRLVSWEGGRLEWFGCNKETTRCFGTVVGDTPAYLYEERWTPPCCLRALRETARYVVGVLEAAGVRYWLEGGSLLGAARHGDIIPWDYDVDLGIYLEDVGNCEQLRGAEAGSVVDERGFVWEKAVEGDFFRVQYSESNHLHVDLWPFYPRNGVMTKDTWLDHRQDVEFPEHFLQPLVPLPFAGFVAQAPNNYRRFLELKFGPGVIENPQYPNPALLSLTGSG [FKRP]”, the melting temperature is 54.5 °C in the series with HeLa Kyoto [1] (cell cycle stage: G1/S) and 55.1 °C in the series on HeLa Kyoto [1] (cell cycle stage: mitosis). In addition, the thermal stability score with HeLa Kyoto [2] (setting [5]) was -1.33; with HeLa Kyoto [2] (cell cycle stage: mitosis), 0.366. Moreover, in the series on HeLa Kyoto [3], the “solubility change mitosis (log2)” value was 0.00852. For the same sequence, the “solubility in G1/S (log2)” value with HeLa Kyoto [4] amounted to 0.127.
For “MRPGAPGPLWPLPWGALAWAVGFVSSMGSGNPAPGGVCWLQQGQEATCSLVLQTDVTRAECCASGNIDTAWSNLTHPGNKINLLGFLGLVHCLPCKDSCDGVECGPGKACRMLGGRPRCECAPDCSGLPARLQVCGSDGATYRDECELRAARCRGHPDLSVMYRGRCRKSCEHVVCPRPQSCVVDQTGSAHCVVCRAAPCPVPSSPGQELCGNNNVTYISSCHMRQATCFLGRSIGVRHAGSCAGTPEEPPGGESAEEEENFV [FSTL3]”, the melting temperature came to 51.7 °C in the series with HeLa Kyoto [1] (cell cycle stage: G1/S) and 54.8 °C with HeLa Kyoto [1] (cell cycle stage: mitosis). The thermal stability score came to 2.88 in the series with HeLa Kyoto [2] (setting [5]) and 2.67 in the series on HeLa Kyoto [2] (cell cycle stage: mitosis). Moreover, in the series with HeLa Kyoto [3], the “solubility change mitosis (log2)” value is 0.0887. In addition, in the series with HeLa Kyoto [4], the “solubility in G1/S (log2)” value is -0.141.
